Source: the RNAGym collection of RNA variant scans (doi:10.1021/acssynbio.7b00057)

B1: Pistol ribozyme (parent)
chain: GGGUCGUUGUUCCAUAAUCGCGUGGAUAUGGCACGCAAGUUUCUACCGGGCACCGUAAAUGUCCGACUGGAGCCGUUCGGGCGGCUAUAAACAGACCUCAGGCCCGAAGCGUGGCGGCACCUGCCGCCGGUGGUAAAAAAGAUCGGAAGAGCACACGUCU

Variants of: B1
Test: aptazyme ON/OFF ratio, guanine; higher = stronger switching; co-transcriptional cleavage with and without guanine
For GGGUCGCGAUAAUAUAAUCGCGUGGAUAUGGCACGCAAGUUUCUACCGGGCACCGUAAAUGUCCGACUGGAGCCGUUCGGGCGGCUAUAAACAGACCUCAGGCCCGAAGCGUGGCGGCACCUGCCGCCGGUGGUAAAAAAGAUCGGAAGAGCACACGUCU [U7C U8G G9A U11A C12A C13U], the “aptazyme ON/OFF ratio” value was 1.24.
In the case of GGGUCGCGAUAAAAUAAUCGCGUGGAUAUGGCACGCAAGUUUCUACCGGGCACCGUAAAUGUCCGACUGGAGCCGUUCGGGCGGCUAUAAACAGACCUCAGGCCCGAAGCGUGGCGGCACCUGCCGCCGGUGGUAAAAAAGAUCGGAAGAGCACACGUCU [U7C U8G G9A U11A C12A C13A], the “aptazyme ON/OFF ratio” value is reported as 1.3.
In the case of GGGUCGCGAUAAGAUAAUCGCGUGGAUAUGGCACGCAAGUUUCUACCGGGCACCGUAAAUGUCCGACUGGAGCCGUUCGGGCGGCUAUAAACAGACCUCAGGCCCGAAGCGUGGCGGCACCUGCCGCCGGUGGUAAAAAAGAUCGGAAGAGCACACGUCU [U7C U8G G9A U11A C12A C13G], the “aptazyme ON/OFF ratio” value is reported as 1.15.
With GGGUCGCGAGGAAAUAAUCGCGUGGAUAUGGCACGCAAGUUUCUACCGGGCACCGUAAAUGUCCGACUGGAGCCGUUCGGGCGGCUAUAAACAGACCUCAGGCCCGAAGCGUGGCGGCACCUGCCGCCGGUGGUAAAAAAGAUCGGAAGAGCACACGUCU [U7C U8G G9A U10G U11G C12A C13A] the “aptazyme ON/OFF ratio” value was 1.11.
For GGGUCGCGAGGAGAUAAUCGCGUGGAUAUGGCACGCAAGUUUCUACCGGGCACCGUAAAUGUCCGACUGGAGCCGUUCGGGCGGCUAUAAACAGACCUCAGGCCCGAAGCGUGGCGGCACCUGCCGCCGGUGGUAAAAAAGAUCGGAAGAGCACACGUCU [U7C U8G G9A U10G U11G C12A C13G], the “aptazyme ON/OFF ratio” value was 1.24.
With GGGUCGCGAGGAUAUAAUCGCGUGGAUAUGGCACGCAAGUUUCUACCGGGCACCGUAAAUGUCCGACUGGAGCCGUUCGGGCGGCUAUAAACAGACCUCAGGCCCGAAGCGUGGCGGCACCUGCCGCCGGUGGUAAAAAAGAUCGGAAGAGCACACGUCU [U7C U8G G9A U10G U11G C12A C13U] the “aptazyme ON/OFF ratio” value was 1.12.
In the case of GGGUCGCGAGCCGAUAAUCGCGUGGAUAUGGCACGCAAGUUUCUACCGGGCACCGUAAAUGUCCGACUGGAGCCGUUCGGGCGGCUAUAAACAGACCUCAGGCCCGAAGCGUGGCGGCACCUGCCGCCGGUGGUAAAAAAGAUCGGAAGAGCACACGUCU [U7C U8G G9A U10G U11C C13G], the “aptazyme ON/OFF ratio” value is reported as 1.04.
In the case of GGGUCGCGAGCCAAUAAUCGCGUGGAUAUGGCACGCAAGUUUCUACCGGGCACCGUAAAUGUCCGACUGGAGCCGUUCGGGCGGCUAUAAACAGACCUCAGGCCCGAAGCGUGGCGGCACCUGCCGCCGGUGGUAAAAAAGAUCGGAAGAGCACACGUCU [U7C U8G G9A U10G U11C C13A], the “aptazyme ON/OFF ratio” value is reported as 1.11.
For GGGUCGCGAGCCUAUAAUCGCGUGGAUAUGGCACGCAAGUUUCUACCGGGCACCGUAAAUGUCCGACUGGAGCCGUUCGGGCGGCUAUAAACAGACCUCAGGCCCGAAGCGUGGCGGCACCUGCCGCCGGUGGUAAAAAAGAUCGGAAGAGCACACGUCU [U7C U8G G9A U10G U11C C13U], the “aptazyme ON/OFF ratio” value was 1.03.
For GGGUCGCGAGGCCAUAAUCGCGUGGAUAUGGCACGCAAGUUUCUACCGGGCACCGUAAAUGUCCGACUGGAGCCGUUCGGGCGGCUAUAAACAGACCUCAGGCCCGAAGCGUGGCGGCACCUGCCGCCGGUGGUAAAAAAGAUCGGAAGAGCACACGUCU [U7C U8G G9A U10G U11G], the “aptazyme ON/OFF ratio” value was 1.42.
With GGGUCGCGAUAUCAUAAUCGCGUGGAUAUGGCACGCAAGUUUCUACCGGGCACCGUAAAUGUCCGACUGGAGCCGUUCGGGCGGCUAUAAACAGACCUCAGGCCCGAAGCGUGGCGGCACCUGCCGCCGGUGGUAAAAAAGAUCGGAAGAGCACACGUCU [U7C U8G G9A U11A C12U] the “aptazyme ON/OFF ratio” value was 1.26.
For GGGUCGCGAUAACAUAAUCGCGUGGAUAUGGCACGCAAGUUUCUACCGGGCACCGUAAAUGUCCGACUGGAGCCGUUCGGGCGGCUAUAAACAGACCUCAGGCCCGAAGCGUGGCGGCACCUGCCGCCGGUGGUAAAAAAGAUCGGAAGAGCACACGUCU [U7C U8G G9A U11A C12A], the “aptazyme ON/OFF ratio” value was 1.29.
In the case of GGGUCGCGAUAGCAUAAUCGCGUGGAUAUGGCACGCAAGUUUCUACCGGGCACCGUAAAUGUCCGACUGGAGCCGUUCGGGCGGCUAUAAACAGACCUCAGGCCCGAAGCGUGGCGGCACCUGCCGCCGGUGGUAAAAAAGAUCGGAAGAGCACACGUCU [U7C U8G G9A U11A C12G], the “aptazyme ON/OFF ratio” value is reported as 1.11.
In the case of GGGUCGCGAUAGUAUAAUCGCGUGGAUAUGGCACGCAAGUUUCUACCGGGCACCGUAAAUGUCCGACUGGAGCCGUUCGGGCGGCUAUAAACAGACCUCAGGCCCGAAGCGUGGCGGCACCUGCCGCCGGUGGUAAAAAAGAUCGGAAGAGCACACGUCU [U7C U8G G9A U11A C12G C13U], the “aptazyme ON/OFF ratio” value is reported as 1.08.
For GGGUCGCGAUAGGAUAAUCGCGUGGAUAUGGCACGCAAGUUUCUACCGGGCACCGUAAAUGUCCGACUGGAGCCGUUCGGGCGGCUAUAAACAGACCUCAGGCCCGAAGCGUGGCGGCACCUGCCGCCGGUGGUAAAAAAGAUCGGAAGAGCACACGUCU [U7C U8G G9A U11A C12G C13G], the “aptazyme ON/OFF ratio” value was 1.11.
In the case of GGGUCGCGAUAGAAUAAUCGCGUGGAUAUGGCACGCAAGUUUCUACCGGGCACCGUAAAUGUCCGACUGGAGCCGUUCGGGCGGCUAUAAACAGACCUCAGGCCCGAAGCGUGGCGGCACCUGCCGCCGGUGGUAAAAAAGAUCGGAAGAGCACACGUCU [U7C U8G G9A U11A C12G C13A], the “aptazyme ON/OFF ratio” value is reported as 1.12.
With GGGUCGCGAUACGAUAAUCGCGUGGAUAUGGCACGCAAGUUUCUACCGGGCACCGUAAAUGUCCGACUGGAGCCGUUCGGGCGGCUAUAAACAGACCUCAGGCCCGAAGCGUGGCGGCACCUGCCGCCGGUGGUAAAAAAGAUCGGAAGAGCACACGUCU [U7C U8G G9A U11A C13G] the “aptazyme ON/OFF ratio” value was 1.07.
In the case of GGGUCGCGAUACAAUAAUCGCGUGGAUAUGGCACGCAAGUUUCUACCGGGCACCGUAAAUGUCCGACUGGAGCCGUUCGGGCGGCUAUAAACAGACCUCAGGCCCGAAGCGUGGCGGCACCUGCCGCCGGUGGUAAAAAAGAUCGGAAGAGCACACGUCU [U7C U8G G9A U11A C13A], the “aptazyme ON/OFF ratio” value is reported as 1.2.
